The results in this text go back to patent US9458427B2, “IFNγR2 compositions and methods of inhibiting neuronal cell death” (Case Western Reserve University, priority 2009, dated 2016).

In data set [1] the test system is HT1080 (IFNγR2 null mutant and JAK2 null mutant) cells. The experiment in a line: Etoposide-induced apoptosis in HT1080-derived IFNγR2 null and Jak2 null cells (Hoechst nuclear staining). Type of data set: cell-based, human. The note with it: cells lacking IFNγR2 and Jak2, 10 μM etoposide for 24 h. The method, then:
HT1080 (wild type, IFNγR2 null mutant and JAK2 null mutant) cells were cultured in Dulbecco's Modified Eagle's Medium (DMEM) supplemented with 10% fetal bovine serum (FBS). HeLa, Human Embryonic Kidney (HEK) 293 and HEK293T cells were purchased from ATCC, and cultured in DMEM supplemented with 10% FBS. LNCap and PC3 cells were purchased from ATCC and cultured in DMEM F12 medium supplemented with 10% FBS. RWPE1 and RWPE2 were purchased from ATCC and cultured in keratinocytes-SFM plus supplements medium (Gibco). Primary mammary epithelial (4A100) cultures were derived from organoids isolated from discarded mammary tissue acquired from patients undergoing reduction mammoplasty surgery. Anonymized specimens were acquired from patients who had given written consent, through the Tissue Procurement and Histology Core Facility of the Case Comprehensive Cancer Center (Case), under a Case CCC IRB approved protocol. Primary epithelial cultures were grown in M87A+X medium. Human HME1 cells (Clontech) were grown in medium 171 with mammary epithelial growth supplement (Cascade Biologics) and penicillin-streptomycin.42 Human breast cancer cell line MDA-MD468 was cultured in RPMI, 5% FBS, supplemented with L-glutamine, penicillin-streptomycin and fungizone (Gibco). […]
Cells were cultured overnight in DMEM supplemented with 10% FBS. […] Transfection efficiency was analyzed by the expression of the EGFP-tagged proteins.
(§1) Apoptosis was induced by transfecting the cells with pcDNA3-human Bax, or pcDNA3-human Bak, or pcDNA3-human Bim EL, or by treatment with etoposide (10 μM) or staurosporine (100 nM). To determine the induction of apoptosis by different apoptotic stresses, cells were stained with Hoechst 33258 dye, and the numbers of cells with apoptotic nuclei were counted using fluorescence microscopy. Three hundred cells were analyzed in triplicate samples. […] Caspase activity were measured by using a fluorogenic caspase 3 substrate II (Calbiochem), IFNγR2 constructs were cloned in pEGFP-C2 (IFNγR2wild type, IFNγR21-295 and IFNγR2296-337) vector.

Another data set deals with T1, human Bak (Homo sapiens, UniProt Q16611).
T1 construct: expressed in transfected cells; host or cells: HEK293
T1 sequence (Q16611 1-211): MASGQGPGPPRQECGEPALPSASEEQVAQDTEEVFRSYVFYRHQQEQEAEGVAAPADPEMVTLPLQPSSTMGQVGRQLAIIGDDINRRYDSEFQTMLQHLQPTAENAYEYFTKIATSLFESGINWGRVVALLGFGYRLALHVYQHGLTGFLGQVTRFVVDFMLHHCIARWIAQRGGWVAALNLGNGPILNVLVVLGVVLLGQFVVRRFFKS
The experiment in a line: Apoptosis induced by Bak overexpression in HEK293 cells. Type of data set: cell-based. The note with it: 24 h after transfection. How it is done:
(§2) Cells were cultured overnight in DMEM supplemented with 10% FBS. The transfections were performed using […]® (Qiagen, Valencia, Calif.) in accordance with the manufacturer's instructions. Transfection efficiency was analyzed by the expression of the EGFP-tagged proteins.
as §1
(§3) For Bax, Bak or Bim EL overexpression, cells were transfected with either 1 μg pcDNA3-human Bax, 1 μg pcDNA3-human Bak, or 1 μg pcDNA3 human Bim EL, and 4 μg of pEGFP plasmid encoding IFNγR2, and the apoptosis or caspase activity was determined 24 h after the transfection.

Data set [2] addresses T2, Bax (Homo sapiens, UniProt Q07812). Put plainly: Staurosporine-induced Bax activation in HeLa cells (6A7 antibody immunostaining). Particulars: staurosporine 100 nM, 3 h. Type of data set: cell-based. Set-up: endogenous in cells; host or cells: HeLa. The method, then:
HeLa cells were transiently transfected with pEGFP-C2-IFNγR2 (wild type 1-295, or 296-337) using […]® (Qiagen, Valencia, Calif.) in accordance with the manufacturer's instructions. Four micograms of the plasmid were used to transfect cells cultured in 6-cm diameter dishes. After 24 h of transfection, the cells were treated with staurosporine (100 nM) for 3 h. Then, the cells were washed with phosphate buffer pH 7.4 (PBS), fixed using paraformaldehyde (1%), permeabilized with Triton X-100 (0.02%), blocked with goat serum, and the activation of Bax was analyzed by immunocytochemistry using monoclonal Bax 6A7 antibody (BDPharmingen) and ALEXA FLUOR® 568-labeled anti-mouse IgG secondary antibody (Invitrogen).

Another data set concerns Caspase 3. The experiment in a line: Etoposide-induced Caspase 3 activation in IFNγR2 null cells. The note with it: 10 μM etoposide for 24 h, plasmid-mediated expression. The format is cell-based, human. The method, then:
as §1

Data set [3] concerns the target T2, Bax. Put plainly: Apoptosis induced by Bax overexpression in HEK293 cells (Hoechst nuclear staining). Type of data set: cell-based. Set-up: expressed in transfected cells; host or cells: HEK293. Particulars: HEK293 cells co-transfected with pcDNA3-h Bax and pEGFP-C2-IFNγR2 construct, 24 h after transfection. How it is done: as §2, §1, §3
The next data set deals with human Bim EL. The experiment in a line: Apoptosis induced by Bim overexpression in HEK293T cells. Type of data set: cell-based. Particulars: 24 h after transfection. How it is done: as §2, §1, §3
The target in the next data set is T3, human Bax ΔTM (Homo sapiens, UniProt Q07812).
T3 construct: Bax C terminal transmembrane truncated human Bax; His tag (on MBP) (N, cleaved yes); made in house
T3 sequence (Q07812 1-171 limits assumed, stated change not applied): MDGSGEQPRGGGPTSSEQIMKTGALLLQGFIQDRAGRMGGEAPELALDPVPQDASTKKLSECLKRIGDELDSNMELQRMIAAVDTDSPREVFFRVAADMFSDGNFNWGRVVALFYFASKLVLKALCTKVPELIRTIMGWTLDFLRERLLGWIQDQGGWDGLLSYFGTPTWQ
Put plainly: Binding of recombinant proteins (pull-down on anti-Bax beads). Particulars: purified recombinant proteins, IFNγR2263-337 tagged with thioredoxin (rTrx). The source says:
Recombinant human Bax ΔTM (Bax C terminal transmembrane truncated human Bax) was produced by using pHMTc vector downstream of maltose binding protein (MBP), separated by the TEV protease site. Overexpressed MBP-Bax was purified through a maltose-binding column (NEB) and subsequently cleaved by TEV protease (Invitrogen), followed by Ni-affinity purification to remove the protease and the His-tagged MBP. IFNγR2 cytoplamic domain (amino acids 263 337) was fused with thioredoxin (rTrx) to increase the recovery rate from bacterial lysates. The production and the purification of this fusion protein were performed by Protein X Laboratory (San Diego, Calif.). Recombinant Bax (25 ng) was loaded onto Sepharose G beads pre-equilibrated with anti-Bax antibody (Bax B9, Santa Cruz) or pre-immune IgG (control IgG) at 4° C. for 2 h. The excess Bax molecules were washed 3 times with buffer (50 mM phosphate buffer, pH 7.4). Recombinant IFNγR2 (263-337)-rTrx (25 ng) was added to the beads preloaded with Bax and anti-Bax or control IgG. Beads and IFNγR2263-337-rTrx were incubated at 4° C. for 2 h. After the incubation, beads were extensively washed with the loading buffer (50 mM phosphate buffer, pH 7.4). Beads were boiled in Laemmli buffer, and the supernatant was collected as a sample. Samples were analyzed by western blot using anti IFNγR2 antibody (C20, Santa Cruz) and Bax (N20, Santa Cruz).

The target in another data set is T4, Mouse Bax (Mus musculus, UniProt Q07813).
T4 construct: expressed in transfected cells; host or cells: yeast strain EGY48, pGilda vector
T4 sequence (Q07813 whole entry): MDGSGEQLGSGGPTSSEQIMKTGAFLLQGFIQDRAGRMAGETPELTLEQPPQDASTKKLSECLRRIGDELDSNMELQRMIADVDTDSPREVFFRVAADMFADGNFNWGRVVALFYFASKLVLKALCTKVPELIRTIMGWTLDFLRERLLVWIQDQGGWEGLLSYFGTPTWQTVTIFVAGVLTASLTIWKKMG
Put plainly: Yeast-based functional screening for Bax inhibitors. Type of data set: cell-based. Particulars: yeast strain EGY48, galactose-inducible mouse Bax. How it is done:
The yeast strain EGY48 was used for the yeast functional screening for Bax inhibitors. Mouse Bax was expressed under a galactose-inducible promoter using pGilda vector as reported. Yeast expression libraries of cDNAs of mouse brain and a human cell line (HeLa) were prepared in pYES2 and pJG4-5 vectors, respectively.
To perform a yeast-based functional screen for Bax inhibitors, yeast expression cDNA libraries were generated from purified mRNAs of human HeLa cells and mouse brain tissue using pJG4-5 and pYES2 vectors, respectively. […] IFNγR2263-337 contains a Jak2-binding domain (amino acids 284-295). To determine the role of the Jak2-binding domain in Bax inhibition, two IFNγR2 mutants were generated (FIG. 1B) and tested for their anti-Bax activity in human cells as described below.

T2 sequence (Q07812 whole entry): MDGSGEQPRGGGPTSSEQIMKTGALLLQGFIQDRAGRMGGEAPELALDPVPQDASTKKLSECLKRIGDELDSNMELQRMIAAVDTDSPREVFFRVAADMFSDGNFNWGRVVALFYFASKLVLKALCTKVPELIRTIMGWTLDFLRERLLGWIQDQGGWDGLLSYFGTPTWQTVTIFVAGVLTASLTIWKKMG

B1: IFNγR2wild type: interferon gamma receptor beta chain, full length, expressed from pEGFP-C2 plasmid as EGFP fusion (protein)
chain: APPDPLSQLPAPQHPKIRLYNAEQVLSWEPVALSNSTRPVVYQVQFKYTDSKWFTADIMSIGVNCTQITATECDFTAASPSAGFPMDFNVTLRLRAELGALHSAWVTMPWFQHYRNVTVGPPENIEVTPGEGSLIIRFSSPFDIADTSTAFFCYYVHYWEKGGIQQVKGPFRSNSISLDNLKPSRVYCLQVQAQLLWNKSNIFRVGHLSNISCYETMADASTELQQVILISVGTFSLLSVLAGACFFLVLKYRGLIKYWFHTPPSIPLQIEEYLKDPTQPILEALDKDSSPKDDVWDSVSIISFPEKEQEDVLQTL
modifications: left off: large carriers
notes: interferon gamma receptor beta chain, full length, expressed from pEGFP-C2 plasmid as EGFP fusion
As to B1, the “Inhibition of etoposide-induced apoptosis” value in data set [1] is “able to inhibit etoposide-induced apoptosis”. Moreover, in the data set with human Bak, the “Rescue from apoptosis induced by Bak overexpression” value is given as “could not rescue cells from apoptosis induced by Bak overexpression”. Moreover, the “Inhibition of STS-induced Bax activation (6A7 Ab-positive cells in GFP-positive cells)” value with Bax [2] is reported as “inhibited STS-induced Bax activation”. Besides, the “Inhibition of etoposide-induced Caspase 3 activation” value in the data set with Caspase 3 is listed as “inhibited etoposide-induced Caspase 3 activation”. Moreover, the “Inhibition of apoptosis induced by Bax overexpression” value with Bax [3] was “able to inhibit apoptosis induced by Bax overexpression”. Also, the “Inhibition of apoptosis induced by Bim overexpression” value in the data set on human Bim EL is “able to inhibit apoptosis induced by Bim overexpression”.

B2: IFNγR2263-337: cytoplasmic domain of IFNγR2 (amino acids 263-337); recombinant form fused with thioredoxin (rTrx) (protein)
chain: AGACFFLVLKYRGLIKYWFHTPPSIPLQIEEYLKDPTQPILEALDKDSSPKDDVWDSVSIISFPEKEQEDVLQTL
modifications: left off: large carriers
For B2, in the data set with human Bax ΔTM, the “Direct interaction with BaxΔTM” value was “confirmed”. Also, the “Suppression of Bax in yeast (rescue of yeast growth from Bax expression)” value in the data set with Mouse Bax is listed as “Bax suppressor”.
